This note sets out measurements from PMC549393.

The target in this data set is T1, TBP (TATA-binding protein);Brf1;Bdp1 (yeast?;yeast?;yeast?, UniProt P13393;P29056;P46678 1-240;1-596;1-594, ||).
T1 sequence 1: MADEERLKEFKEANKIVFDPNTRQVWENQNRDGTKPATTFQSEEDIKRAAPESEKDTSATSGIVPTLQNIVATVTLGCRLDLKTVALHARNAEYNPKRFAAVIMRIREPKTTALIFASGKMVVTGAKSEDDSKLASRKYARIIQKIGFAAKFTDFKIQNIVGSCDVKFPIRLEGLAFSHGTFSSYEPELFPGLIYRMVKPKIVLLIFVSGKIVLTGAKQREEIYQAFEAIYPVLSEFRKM
T1 sequence 2: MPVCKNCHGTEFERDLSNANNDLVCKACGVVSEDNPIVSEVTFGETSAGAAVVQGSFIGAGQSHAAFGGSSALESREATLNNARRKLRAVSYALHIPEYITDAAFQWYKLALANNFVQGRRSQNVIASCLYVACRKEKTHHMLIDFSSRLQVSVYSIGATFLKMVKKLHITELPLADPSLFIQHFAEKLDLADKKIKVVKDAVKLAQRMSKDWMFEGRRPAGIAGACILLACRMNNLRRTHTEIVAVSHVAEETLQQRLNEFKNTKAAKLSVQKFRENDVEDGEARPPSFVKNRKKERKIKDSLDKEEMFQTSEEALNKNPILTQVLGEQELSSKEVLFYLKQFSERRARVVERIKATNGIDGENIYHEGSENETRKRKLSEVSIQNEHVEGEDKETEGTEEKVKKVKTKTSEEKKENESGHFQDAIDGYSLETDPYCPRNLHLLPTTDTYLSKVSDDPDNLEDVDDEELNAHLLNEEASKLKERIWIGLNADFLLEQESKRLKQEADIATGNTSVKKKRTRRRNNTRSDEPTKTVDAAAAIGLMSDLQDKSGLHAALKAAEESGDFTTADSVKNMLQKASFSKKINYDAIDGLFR
T1 sequence 3: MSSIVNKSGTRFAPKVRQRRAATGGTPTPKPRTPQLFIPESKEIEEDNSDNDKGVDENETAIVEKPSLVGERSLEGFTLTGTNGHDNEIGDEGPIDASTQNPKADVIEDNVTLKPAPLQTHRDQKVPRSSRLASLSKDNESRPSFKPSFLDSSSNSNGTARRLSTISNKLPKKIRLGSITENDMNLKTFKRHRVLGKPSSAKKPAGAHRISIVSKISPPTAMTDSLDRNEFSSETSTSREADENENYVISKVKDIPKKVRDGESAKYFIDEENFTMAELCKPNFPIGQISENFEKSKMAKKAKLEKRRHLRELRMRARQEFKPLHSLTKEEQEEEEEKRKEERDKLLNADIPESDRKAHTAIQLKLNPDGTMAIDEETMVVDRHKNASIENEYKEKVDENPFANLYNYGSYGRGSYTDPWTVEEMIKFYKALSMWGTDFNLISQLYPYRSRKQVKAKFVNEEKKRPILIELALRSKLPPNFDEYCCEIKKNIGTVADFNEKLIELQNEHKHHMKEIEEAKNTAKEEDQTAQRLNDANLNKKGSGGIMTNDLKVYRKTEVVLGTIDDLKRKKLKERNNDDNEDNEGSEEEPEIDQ
Kind of data set: EMSA. On the technique in general: A gel shift assay detects complexes by their altered migration in electrophoresis.

B1: U6 (SNR6) TATA-DNA, 30 bp (dsDNA)
DNA 1: TTTTCGGCTACTATAAATAAATGTTTTTTT
DNA 2: AAAAAAACATTTATTTATAGTAGCCGAAAA
Turning to B1, the binding result is given as “binds”.
